According to patent publication US20090311283A1:

Key:
HLA-A*3101 (Human) [1] = settings: remark: other sources report otherwise
HLA-B*0702 (Human) = assay: competition with 125I-labelled probe peptide for purified HLA, gel filtration
HLA-B*3501 (Human) = assay: as above
HLA-B*5101 (Human) = assay: as above
HLA-B*5301 (Human) = assay: as above
HLA-B*5401 (Human) [2] = assay: as above
HLA-B*5401 (Human) [3] = assay: competition with 125I-labeled probe peptide for purified HLA, gel filtration
HLA-A*0301 (human) [4] = assay: competition with 125I-labelled probe peptide for purified HLA, gel filtration; relative binding to standard peptide
HLA-A*0301 (human) [5] = assay: competitive inhibition of 125I-labelled probe peptide binding to purified HLA; relative to standard peptide
HLA-A*1101 (human) [6] = assay: as above
HLA-A*3101 (human) [7] = assay: as above
HLA-A*3301 (human) [8] = assay: as above
HLA-A*0301 (human) [9] = assay: competition with radiolabeled probe peptide for purified HLA, gel filtration
HLA-A*03 (Human) = settings: remark: other sources report otherwise
HLA-A*0301 (human) [10] = assay: competition with 125I-labelled probe peptide for purified HLA-A*0301, gel filtration; relative binding against the standard peptide; settings: scale: ratio
HLA-DRB1*0101 (human) = biological target: T1, HLA-DRB1*0101 (human); assay: inhibition of 125I-labelled probe peptide binding to purified HLA-DR; gel filtration; settings: remark: other sources report otherwise
T1 chain 1: not shown
T1 chain 2: not shown

HLA-DRB1*0401 (human) = biological target: T2, HLA-DRB1*0401 (human); assay: as above; settings: remark: other sources report otherwise
T2 chain 1: not shown
T2 chain 2: not shown

HLA-DRB1*0701 (human) = biological target: T3, HLA-DRB1*0701 (human); assay: as above; settings: remark: other sources report otherwise
T3 chain 1: not shown
T3 chain 2: not shown

HLA-A*1101 (human) [11] = settings: remark: other sources report otherwise
HLA-A*3301 (human) [12] = settings: remark: other sources report otherwise
HLA-A*0301 (human) [13] = assay: competition with 125I probe peptide on purified HLA-A*0301; relative to standard peptide 941.12; settings: remark: other sources report otherwise
HLA-A*3101 (human) [14] = assay: competition with 125I probe peptide on purified HLA-A*3101; relative to standard peptide 941.12; settings: remark: other sources report otherwise
HLA-A*6801 (human) [15] = assay: competition with 125I probe peptide on purified HLA-A*6801; relative to standard peptide 941.12; settings: remark: other sources report otherwise
HLA-A*0301 (human) [16] = assay: competition with 125I-labelled probe peptide for purified HLA, gel filtration; settings: remark: other sources report otherwise
HLA-A*1101 (human) [17] = assay: as above; settings: remark: other sources report otherwise
HLA-A*3301 (human) [18] = assay: as above; settings: remark: other sources report otherwise
HLA-A*6801 (human) [19] = assay: as above; settings: remark: other sources report otherwise
HLA-A*0301 (human) [20] = assay: competition with 125I-labelled probe peptide for purified HLA, gel filtration; relative to standard peptide
[21] = remark: other sources report otherwise

B1: Peptide 26.0153 (HBV X 64, …) (peptide)
peptide: SSAGPCALR
modifications: not checked
Question: B1 was tested. Which IC50 (HLA-A*3101 (Human) [1]) did it give?
Answer: 55 nM

B2: HBV NUC 129 peptide … (peptide)
peptide: PPAYRPPNA
modifications: not checked
Question: What does the source list for B2?
Answer: binding affinity ratio (IC50 of standard peptide / IC50 of test peptide) (HLA-B*0702 (Human)): 0.0001; binding affinity ratio (IC50 of standard peptide / IC50 of test peptide) (HLA-B*3501 (Human)): 0.0001; binding affinity ratio (IC50 of standard peptide / IC50 of test peptide) (HLA-B*5101 (Human)): 0.0001; binding affinity ratio (IC50 of standard peptide / IC50 of test peptide) (HLA-B*5301 (Human)): 0.0002; binding affinity ratio (IC50 of standard peptide / IC50 of test peptide) (HLA-B*5401 (Human) [2]): 0.0003

B3: HBV NUC 128 peptide … (peptide)
peptide: TPPAYRPPNA
modifications: not checked
Question: Which binding affinity ratio (IC50 of standard peptide / IC50 of test peptide) (HLA-B*5401 (Human) [3]) does the source give for B3 here?
Answer: 0.01

B4: HBV POL 376 peptide … (peptide)
peptide: RLVVDFSQF
modifications: not checked
Question: With B4 as the binder, how does the binding affinity ratio (IC50 of standard peptide / IC50 of test peptide) (HLA-A*0301 (human) [4]) read?
Answer: 0.0006

B5: HBV POL 567 peptide … (peptide)
peptide: GIHLNPNKTK
modifications: not checked
Question: Which binding affinity ratio (IC50 of standard peptide / IC50 of test peptide) (HLA-A*0301 (human) [5]) does the source give for B5 here?
Answer: 0.0025

Question: What about the binding affinity ratio (IC50 of standard peptide / IC50 of test peptide) (HLA-A*1101 (human) [6]) of the same binder?
Answer: 0.0011

Question: What about the binding affinity ratio (IC50 of standard peptide / IC50 of test peptide) (HLA-A*3101 (human) [7]) of the same binder?
Answer: 0.0009

Question: And the binding affinity ratio (IC50 of standard peptide / IC50 of test peptide) (HLA-A*3301 (human) [8])?
Answer: 0.0009

B6: HBV NUC 45 … (peptide)
peptide: LSFLPSDFF
modifications: not checked
Question: How did the binding affinity ratio (IC50 of standard peptide / IC50 of test peptide) (HLA-A*0301 (human) [9]) turn out when B6 was run?
Answer: 0.0006

B7: Peptide 1.0993 (HBV X 130, …) (peptide)
peptide: KVFVLGGCR
modifications: not checked
Question: How did the IC50 (HLA-A*3101 (Human) [1]) turn out when B7 was run?
Answer: 30 nM

B8: Peptide 26.0023 (HBV X NUC FUS 296, VSFGVWIR) (peptide)
peptide: VSFGVWIR
modifications: not checked
Question: For B8, which IC50 (HLA-A*03 (Human)) is on record?
Answer: 2750 nM

B9: Peptide 1.0219 (HBV X 1550, …) (peptide)
peptide: FVLGGCRHK
modifications: not checked
Question: Which IC50 (HLA-A*3101 (Human) [1]) does the source give for B9 here?
Answer: 1500 nM

B10: HBV NUC 129 peptide … (peptide)
peptide: PPAYRPPNAPI
modifications: not checked
Question: Which results are given for B10?
Answer: binding affinity ratio (IC50 of standard peptide / IC50 of test peptide) (HLA-B*0702 (Human)): 0.0003; binding affinity ratio (IC50 of standard peptide / IC50 of test peptide) (HLA-B*3501 (Human)): 0.0001; binding affinity ratio (IC50 of standard peptide / IC50 of test peptide) (HLA-B*5101 (Human)): 0.0001; binding affinity ratio (IC50 of standard peptide / IC50 of test peptide) (HLA-B*5401 (Human) [2]): 0.0001

B11: HBV POL 153 peptide KAGILYKR (peptide)
peptide: KAGILYKR
modifications: not checked
Question: Which binding affinity ratio (IC50 of standard peptide / IC50 of test peptide) (HLA-A*1101 (human) [6]) does the source give for B11 here?
Answer: -0.0002

Question: And the binding affinity ratio (IC50 of standard peptide / IC50 of test peptide) (HLA-A*3101 (human) [7])?
Answer: 0.0015

Question: And the binding affinity ratio (IC50 of standard peptide / IC50 of test peptide) (HLA-A*3301 (human) [8])?
Answer: -0.0009

B12: HBV ENV 9 peptide … (peptide)
peptide: NPLGFFPDHQL
modifications: not checked
Question: B12 was tested. Which binding affinity ratio (IC50 of standard peptide / IC50 of test peptide) (HLA-B*0702 (Human)) did it give?
Answer: 0.0012

Question: And the binding affinity ratio (IC50 of standard peptide / IC50 of test peptide) (HLA-B*5101 (Human))?
Answer: 0.0001

Question: And the binding affinity ratio (IC50 of standard peptide / IC50 of test peptide) (HLA-B*5301 (Human))?
Answer: 0.0028

Question: And the binding affinity ratio (IC50 of standard peptide / IC50 of test peptide) (HLA-B*5401 (Human) [2])?
Answer: 0.0001

B13: HBV POL 736 peptide … (peptide)
peptide: TDNSVVLSRK
modifications: not checked
Question: For B13, which binding affinity ratio (relative to standard peptide) (HLA-A*0301 (human) [10]) is on record?
Answer: 0.0006

B14: HBV NUC 175 peptide … (peptide)
peptide: TTVVRRRGR
modifications: not checked
Question: B14 was tested. Which binding affinity ratio (relative to standard peptide) (HLA-A*0301 (human) [10]; [21]) did it give?
Answer: 0.0008

B15: … (HBV X 52, 15-mer) (peptide)
peptide: HLSLRGLPVCAFSSA
modifications: not checked
Question: For B15, which binding affinity ratio (IC50 of standard peptide / IC50 of test peptide) (HLA-DRB1*0101 (human)) is on record?
Answer: 1.3

Question: What about the binding affinity ratio (IC50 of standard peptide / IC50 of test peptide) (HLA-DRB1*0401 (human)) of the same binder?
Answer: 0.0028

Question: And the binding affinity ratio (IC50 of standard peptide / IC50 of test peptide) (HLA-DRB1*0701 (human))?
Answer: 0.013

B16: HBV POL 716 peptide … (peptide)
peptide: TAELLAACFAR
modifications: not checked
Question: Which results are given for B16?
Answer: binding affinity ratio (IC50 standard peptide / IC50 test peptide) (HLA-A*1101 (human) [11]): 0.0023; binding affinity ratio (IC50 standard peptide / IC50 test peptide) (HLA-A*3301 (human) [12]): 0.16; binding affinity ratio (IC50 standard peptide / IC50 test peptide) (HLA-A*0301 (human) [13]): 0.0006; binding affinity ratio (IC50 standard peptide / IC50 test peptide) (HLA-A*3101 (human) [14]): 0.0066; binding affinity ratio (IC50 standard peptide / IC50 test peptide) (HLA-A*6801 (human) [15]): 0.059; binding affinity ratio (relative to standard peptide) (HLA-A*0301 (human) [10]; [21]): 0.0006

B17: … (HBV NUC 26) (peptide)
peptide: WLWGMDIDPYK
modifications: not checked
Question: Which results are given for B17?
Answer: binding affinity ratio (IC50 of standard peptide / IC50 of test peptide) (HLA-A*0301 (human) [16]): 0.003; binding affinity ratio (IC50 of standard peptide / IC50 of test peptide) (HLA-A*1101 (human) [17]): 0.0013; binding affinity ratio (IC50 of standard peptide / IC50 of test peptide) (HLA-A*3301 (human) [18]): 0.0039; binding affinity ratio (IC50 of standard peptide / IC50 of test peptide) (HLA-A*6801 (human) [19]): 0.049

B18: HBV NUC 29 GMDIDPYK (peptide)
peptide: GMDIDPYK
modifications: not checked
Question: For B18, which binding affinity ratio (IC50 of standard peptide / IC50 of test peptide) (HLA-A*0301 (human) [20]) is on record?
Answer: 0.0006
